From the nanobody polyreactivity screen of Harvey et al. (2022)

Assay: yeast display, Sf9 membrane polyspecificity reagent, FACS + sequencing; frameworks hold sequencing errors
How it was run: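 Nanobodies from a synthetic yeast display library (Saccharomyces cerevisiae BJ5465), induced 36–48 hours with galactose, were stained 1 hour at 4 °C with 10% biotinylated, detergent-solubilized Sf9 membrane reagent, enriched on streptavidin microbeads, then FACS-sorted. Anti-HA (expression) and streptavidin (reagent binding) fluorescence set low and high (top ~1%) gates. Polyreactivity labels come from the gate of origin. Genes were colony-PCR amplified, MiSeq 2 × 250 sequenced and filtered by CDR length.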

QVQLVESGGGLVQAGGSLRLSSAHSGFIFAHNARGRYRQAPGKERELVAAITSSGGSTYYADSVKGRFRISRDNAKNTVYLQMNSVKPEDTAVYYCNDYTYARRGYDEWGQGTQVTVSS
polyreactivity (PSR sort gate): high polyreactivity

QVQLVESGGGLVQAGGSLRLSCAASGRTISRYAMGWYRQAPGKERELVATITSGGSTNYADSVKGRFTISRDNAKNTLYLQMNSLKPEDTAVYYCNAQSWYIVPYDYWGQGTQVTVSS
polyreactivity (PSR sort gate): low polyreactivity

QVQLVESGGGLVQAGGSLRISCAASGFTYRKNAMGWDRQAPGKERELVAAITQSSGRTYYADTVKGRFTISRDNAKNTVYLQMNSLKPEDTAVYYCAARGVWPEYDYWGQGTQVNVSS
polyreactivity (PSR sort gate): low polyreactivity

QVQLVESGGGIVQAGGSLRLSCAASGSIFVHNDLGWYRQAPGKERELVARINTGGGTNYADSVKGRFTISRDNAKKTVYLQMNSLKPEDTAVYYCATDGDRDDHYFTDPEFDYWGQGTQVTVSS
polyreactivity (PSR sort gate): low polyreactivity

QVQLVESGGGLVQAGGILRLSCAASGFIFRLYAKGWYRQAPGKERGLVAAISSGTSTYYADSVKGRFTISRDNAKNTVYLQMNSLIPEDTAVYYCAARISRYPQDDSDYWGQGTQVTVSS
polyreactivity (PSR sort gate): high polyreactivity

PVQIVESGGGLVQAGGSLRLSCAASGFTFYSNAMGWYRQAPGKEWEMVAAISFSGTRTYYADSVKGRFTISRDNEKNTVYLQMNSLKPEDTAVYYCNAVAYNYPRTYDYWGQGTQVTVSS
polyreactivity (PSR sort gate): high polyreactivity

QVQLVESGGGLVQAGGSLRLSCAASGRTFYSYAMGWYRQAPGKERELVAAMTSDGGTYYADSVKGRFTISRDNAKNTVYLQMNSLKPEDTAVYYCAAELYYWYYYWGQGTKVTVSS
polyreactivity (PSR sort gate): low polyreactivity

QVQLVESGGGLVQAGGSLRLSCAASGRTFNYYAMGWYRQAPGKERELVAAISWSGTPTYYADSVKGRFTISRDNAKNTVYLQMNSLKPEDTAVYYCAAYLVSYPRGNYIRYDYWGQGTQVTVSS
polyreactivity (PSR sort gate): low polyreactivity

QVQLVESAGGLVQAGGSLRLSCAASGRTFPGNAMGWYRQAPGKERELVATISSGGTTNYADSVKGRFTISRDNAKTTVYLQMNSLKPEDTAVYYCATDTYHHKADYEYWGQGTQVTVSS
polyreactivity (PSR sort gate): low polyreactivity

QVQLVESGGGLVQAGGSLRLSCAASGRTFKYYAMGWYRQAPGKERELVAAISYNGGSTFYADSVKGRFTISRDNAKNTVYLQMNSLKPVDTAVYYCAAGPRGTGKYYWGQGTQVTVSS
polyreactivity (PSR sort gate): high polyreactivity

QVQLVESGGGLVQAGGSLRLSCAASGSIFGTNAMGWYRQAPGKERELVAAITGRGGSTYYADSVKGRFTISRDNAKNTVYLQMNSLKPEDTAVYYCAVKISTYTYGYWGQGTQVTVSS
polyreactivity (PSR sort gate): high polyreactivity

QVQLVESGGGLVQAGGSLRLSCAASGFTFEYYAMGWYRPAPGKERELVADITTSSAGTYYADSVKGRFTISRDNAKNTVYLQMNSLKPEDTAVYYCNRDDLNTGEDLDYWGQGTQVTVSS
polyreactivity (PSR sort gate): low polyreactivity

QVQLVESGAGLVQARGSLRLSCAASGSIFLSYVMGWYRQAPGKERELVAAISKRGGRTYYADSVKGRFTISRDNAKNTVYLQMNSLKPEDTAVYYCNAVTQRESEEGDYWGQGTQVTVSS
polyreactivity (PSR sort gate): high polyreactivity

QVQLVESGGGLVQAGGSLRLSCAASGSTFLTNDMGWYRQAHGKERELVAVITDGDTTYADSVKGRFTISRDNAKNTVYLQMNSLKPEDTAVYYCAADENYWSAGYDYWGQGTQVTVSS
polyreactivity (PSR sort gate): low polyreactivity

QVQLVESGGGLVQAGGSLRLSCAASGIILPYYAMGWYRQAPGKERELGASISYDGTSTYYADSVKGRFTISRDNAKNTVYLQMNSLKPEDTAVYYCAAVQWWPRASYSMDYWGQGTQVTASS
polyreactivity (PSR sort gate): low polyreactivity

QVQLVESGGGLVQAGGSLRLSCAASGFTLFFHAMGWYRQAPGKERELVATISERGDSTYYADSVKGRFTISRDNAKNTVYLQMNSLKPEDTAVYYCAAVGTYSSYGYWGQGTQVTVSS
polyreactivity (PSR sort gate): high polyreactivity

QVQLVESGGGLVQAVSSLRLSCAASGYIFDRNAMGWYRRAPGKERELVAAITKRGGITYYADSVKGRFTISRDNAKNTVYLQMNSLKPEDTAVYYCAAKTLYNSGTQDRAMGYWGQGTQVTVSS
polyreactivity (PSR sort gate): high polyreactivity

QVQLVESGGGLVQAGGSLRLSCAASGSTFSGYAMGWYRQAPGKERELVAAISYSGGGTYYEDSVKGRFTISRDNAKNTVYLQMNSLKPEDTAVYYCATLGSLRYYWPGYDYWGQGTQVTVSS
polyreactivity (PSR sort gate): low polyreactivity

QVQLVESGGGLVQAGGSLRLICAASGSTFKTYAMGWYRQAPGQEREFVASISGSGGSTSYADSVKGRFTISRDNAKNTVYLQMNSLKPEDTAVYYCAARLQKPTIGKGVYYWGQGTLVTVSS
polyreactivity (PSR sort gate): high polyreactivity

QVQLVESGGGLVQAGGSLRLSCAASGSIFGLYAMGWYRQAAGKERELVAAISASGGSTYYADSVKGRFTISRDNAKNTVYLQMNSLKPEDTAVYYCAVKWRGGPQRGFNYWGQGTQVTVSS
polyreactivity (PSR sort gate): high polyreactivity

QVQLVESGGGLVQAGGSLRLSCAASGGTFAVNAMGWYRQAPGKEREFVAAISSRGSTYYADSVKGRFTISRDNAKNNVYLQMNSLKPEDTAVYYCAAYRSYWEVYPRMYYWGQGTQVTVSS
polyreactivity (PSR sort gate): high polyreactivity

QVQLVESGGGLVQAGGSLRLSCADSGLTFRRYAMGWYRQAPGKERELVAAITRGGSTNYADSVKGRFTISRVNAKNTVYLQMNSLKPEDTAVYFCAAVYSTRSTSYWMDYWGQGTQVTVSS
polyreactivity (PSR sort gate): high polyreactivity

QVQLVESGGGLVQAGGSLRISCAASGFIFVTYAMGWYRQAPGKERELVAAITNSGGTTYYADSVKGRFTISRDNAKNTVYLQMNSLKPEDTAVYYCNKPYGAETAHREFDYWGQGTQVTVSS
polyreactivity (PSR sort gate): low polyreactivity

QVQLVESGGGLVQAGGSLRLSCAASGSIFAKYAMGWYRQAPGKEREFVAAIRASGGRTYYADSVKGRFTISRDNAKNTVYLQMNSLKPEDTAVYYCAAHLYSSRSDYDGPRSRRNYWGQGTQVTVSS
polyreactivity (PSR sort gate): high polyreactivity

QVQVVESGGGLVQAGGSLRLSCAASGSTFSSYVMGWYRQATGKERELVAAISSIGGSTYYADSVKGRFTISRDNAKITVYLQMNSLKPEDTAVYYCAAEPPGSTYEGGYWGQGTQVTVSS
polyreactivity (PSR sort gate): low polyreactivity

QVQLVESGGGLVQAGGSLRLSCAASGFIFYLYTMGWYRQAPGKERELVAAIDYSGASTNYADSVKGRFTISRDNAKNTVYVQRNSQKPEDTAVYYCAVNPEVLYHSWTLDYWGQGTQVTVSS
polyreactivity (PSR sort gate): low polyreactivity

QVQLVESGGGLVQAGGSLRLSCAASGNTIIRYPMGWYRQAPGKERELVAAISYSGGRTYYADSVKGRFTISRDNAKNTVYLQMNSLKPEDTAVYYCNAASRYGGDYWGQGTQVTVSS
polyreactivity (PSR sort gate): high polyreactivity

QVQLQESGGGLVQAGGSLRLSCAASGSIFDGFNMGWYRQAPGKEREFVAAISYGASTYYADSVKGRFTVSRDNAKNSVYLQMNSLKPEDTAVYYCAVYDELYHVLVYWGRGTQVTVSS
polyreactivity (PSR sort gate): low polyreactivity

QVQLVESGGGLVQAGGSLRLSCAASGRTFVSNAMGWYRQAPGKERELVAAISWSGSRTYYADSVKGRFTISRDNAKNTVYLQMNSLKPEDTAVYYCAAAKPKKSRGSAYEYWGQGTQVTVSS
polyreactivity (PSR sort gate): high polyreactivity

QVQLEESGGGLVQAGGSLRLSCAASGRTFRYYAMGWSRQAPGKERELVAAISWSGSSTYYADSVKGRFTISRDNAKNTVYLQMNSLKAEDTAVYYCNAKGVRGKYFDYSRVSAYDYWGQGTQVTVSS
polyreactivity (PSR sort gate): low polyreactivity

QVQLVESGGGLVQAVGSLRLSCAASGSTFPRYAMRWYRQAPGKERELVAAISRSGGSTYYADSVKGRFTISRDNATNTVYLQMNSLKPEDTAVYYCAARDDRGSYKYDYWRQGTQVTVSS
polyreactivity (PSR sort gate): high polyreactivity

QVQLVESGGGLVQAGGSLRLSCAASGFIFGGYAMGWYRQAPGKERELVAAITRGGSTDYADSVKGRFTISRDNAKNTVYLQMNSLKPEDTAVYYCAKKTPGWGKFDYWGQGTQVTVSS
polyreactivity (PSR sort gate): low polyreactivity

QVQLVESGGGLVQAGGSLRLSCAASGRTFIRYAMGWYRQAPRKEREMVAAISYSGGTTYYADSVKGRFTISRDNAKNTVYLQMNSLKPEDTAVYYCARAGGYPLSRYGYWGQGTQVTVSS
polyreactivity (PSR sort gate): high polyreactivity

QVQLVESGGGLVQAGGSLRLSCAASGSTCVSNAMGWYRQAPGKERELVAAISSGDNTNYADSVKGRFTISRDNAKNTVYVQMNSLKPEDTAVYYCAARAYRWRSFSTMYYWGQGTQVTVST
polyreactivity (PSR sort gate): high polyreactivity

QVQLVESGGGLVQAGGSLRLSCAASGFIFGYYTMGWYRQAPGKERELVASITRGGSTNYADSVKGRFTISRDNAKNTVYIQMNSLKPEDTAVYYCAKRYAQTYSVSRYYYWGQGTQVTVSS
polyreactivity (PSR sort gate): high polyreactivity

QVQLVESGGGLVQAGGSLRLSCAASGSIFRTYAMGWYRQSPGKERELVAAITSDGSTYYADSVKGRFTISRDNAKNTVYLKMNRLKPEDTAVYYFAAASQEYDYHYYYWGQGTQVTVSS
polyreactivity (PSR sort gate): low polyreactivity

QVQLVESGGGLVQAGGSLRLSCAASGFTFDSYAMGWYRQAPGKERELVAAITWDGGSTYYADSVKGRFTISRDNAKNTVYLQMNSLKPEDTAVYYCAADFGTISIDVYSWMDYWGQGTQVTVSS
polyreactivity (PSR sort gate): low polyreactivity

QVQLVESGGGLVQAGGSLRLSCAASGRIFTRYAMGWYRQAPGKARELVAAITSSGGRTYYADSVKGRFTISRDNAKNTVYLQMNSLKQEDTAVYYCATGYINSYYYWGQGTQVTVSS
polyreactivity (PSR sort gate): high polyreactivity

QVQLVESGGGLVQAGGSLRLSCAASGSIFVTYAMGWYRQAPGKERELVARITSGGSTYYADSVKGRFTISRDNAKNTVYLQMNSLKPEDTAVYYCAARRWLRYDLDYGGQGTQVTVSS
polyreactivity (PSR sort gate): low polyreactivity

QVQLVESGGGLVQAGGSLRLSCAASGSIFDLNAMGWYRQAPGKERELVAAISKSGGSTYYADSVKGRFTISRDNAKNTVYLQMNSLKPEDTAVYYCAKDRKYHLSGGYDYWGQGSQVTVSS
polyreactivity (PSR sort gate): low polyreactivity

QVQLVESGGGLVQAGGSLRLSSAASGRIFIRNAMGWYRQAPGKERELVAAISWSGGRTYYADSVKGRFTISRDNAKNTVYLQMNSLKPEDTAVYYCAALRYAFQYGLSYYWGQGTQVTVSS
polyreactivity (PSR sort gate): high polyreactivity

QVQLVESGGCLVQAGGSLRLSCSASGRTFNWKAMGWYRPAPGKERELVAVITSSGTRTYYADSVKGRFTISRDNAKNTVSLQMNSLKPEDTAVYYCANGETYTGPNSRYGQWKKVYYWGQGTQVTVSS
polyreactivity (PSR sort gate): low polyreactivity

QVQLVESGGGLVQAGGSLRLSCAASGFTIWPYAMGWYRQAPGKERELVAGITRNGGSTYYADSVKGRFTISRDIAKNTVYLQMNSLKPEDTAVYYCNTKYAVEFDYWGQGTQVTVSS
polyreactivity (PSR sort gate): low polyreactivity
